According to the supplement of paper PMC10567573:

B1: USP39 (parent)
chain: FQGSMRIFTKKLPHPDLPAEEKEQ
B2: RAD54B (parent)
chain: YVQEKRDGLKRRQQLEEELLRAKI

Variants of: B1
Assay: protein stability index of a GFP-peptide fusion (GPS, HEK-293T) (PSI 1-6); higher = more stable
Conditions: c terminus: a fixed tail appended
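Note: lentivirally expressed fusions sorted by FACS into six bins by GFP to DsRed ratio, PSI derived from sequencing read proportions per bin multiplied by bin number.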

| Variant | protein stability index |
| --- | --- |
| F1L | 4.29 |
| F1D | 5.37 |
| F1Y | 2.11 |
| F1Q | 4.89 |
| F1A | 5.07 |
| F1K | 4.9 |
| F1M | 4.19 |
| F1W | 4.78 |
| F1N | 5.22 |
| F1H | 4.53 |
| F1C | 4.82 |
| F1V | 4.52 |
| F1R | 4.95 |
| F1I | 4.17 |
| F1T | 4.86 |
| F1P | 4.83 |
| F1G | 4.66 |
| F1E | 5.48 |
| F1S | 5.04 |
| S4Q | 2.25 |
| S4N | 1.79 |
| S4A | 2.33 |
| S4M | 4.08 |

| Variant | protein stability index |
| --- | --- |
| S4D | 1.33 |
| S4R | 2.46 |
| S4C | 1.39 |
| S4F | 1.1 |
| S4Y | 2.25 |
| S4K | 2.37 |
| S4H | 1.69 |
| S4T | 1.98 |
| S4P | 2.3 |
| S4E | 2.28 |
| S4V | 1.95 |
| S4I | 2.27 |
| S4W | 2.04 |
| Q2W | 2.82 |
| Q2H | 3.58 |
| Q2K | 4.16 |
| Q2T | 2.2 |
| Q2E | 4.12 |
| Q2C | 3.34 |
| Q2S | 2.7 |
| Q2F | 2.99 |
| Q2P | 1.75 |
| Q2D | 4.49 |

| Variant | protein stability index |
| --- | --- |
| Q2G | 3.26 |
| Q2I | 1.78 |
| Q2M | 3.46 |
| Q2R | 3.89 |
| Q2Y | 2.92 |
| Q2L | 2.73 |
| Q2N | 2.85 |
| Q2A | 2.29 |
| G3P | 2.53 |
| G3L | 2.23 |
| G3K | 3.37 |
| G3T | 3 |
| G3F | 1.68 |
| G3N | 2.2 |
| G3W | 1.85 |
| G3V | 2.01 |
| G3I | 2.07 |
| G3S | 2.31 |
| G3D | 1.61 |
| G3Q | 3.51 |
| G3E | 2.17 |
| G3Y | 2.57 |
| G3C | 1.86 |

| Variant | protein stability index |
| --- | --- |
| G3H | 2.54 |
| G3A | 2.61 |
| G3M | 2.67 |
| G3R | 3.64 |
| M5E | 2.5 |
| M5P | 1.87 |
| M5N | 2.15 |
| M5T | 1.61 |
| M5R | 1.89 |
| M5F | 1.89 |
| M5G | 1.73 |
| M5A | 2.1 |
| M5H | 1.82 |
| M5K | 2.07 |
| M5V | 2.17 |
| M5W | 2.14 |
| M5D | 2.11 |
| M5C | 2.62 |
| M5Q | 2.29 |
| M5L | 2.01 |
| M5S | 1.61 |
| M5I | 1.66 |
| M5Y | 1.85 |

Variants of: B2
Assay: as above
Conditions: c terminus: a fixed tail appended

| Variant | protein stability index |
| --- | --- |
| Q14C | 1.77 |
| Q14D | 2.2 |
| Q14A | 1.93 |
| Q14P | 1.99 |
| Q14K | 2.35 |
| Q14L | 1.86 |
| Q14I | 1.76 |
| Q14H | 1.94 |
| Q14N | 1.65 |
| Q14V | 2.01 |
| Q14W | 2.12 |
| Q14Y | 2.25 |
| Q14S | 1.67 |
| Q14F | 2.12 |
| Q14M | 1.75 |
| Q14E | 2 |
| Q14R | 2.09 |
| Q14T | 1.75 |
| Q14G | 2.33 |
| L19I | 1.88 |
| L19N | 2.14 |
| L19V | 1.7 |
| L19H | 2.16 |
| L19Q | 1.78 |
| L19D | 2.3 |

| Variant | protein stability index |
| --- | --- |
| L19G | 2.54 |
| L19Y | 1.55 |
| L19F | 2.37 |
| L19A | 1.96 |
| L19M | 2.06 |
| L19E | 1.95 |
| L19W | 2.17 |
| L19P | 2.34 |
| L19S | 2.45 |
| L19T | 1.75 |
| L19R | 2.38 |
| L19C | 1.95 |
| L19K | 2.42 |
| R12W | 1.89 |
| R12P | 1.96 |
| R12Y | 2.01 |
| R12N | 2.41 |
| R12Q | 2.35 |
| R12I | 1.99 |
| R12V | 2.04 |
| R12G | 2.25 |
| R12S | 2.06 |
| R12H | 2.18 |
| R12L | 1.98 |
| R12T | 2.19 |

| Variant | protein stability index |
| --- | --- |
| R12K | 2.47 |
| R12M | 2.02 |
| E18R | 1.88 |
| E18A | 2.02 |
| E18P | 2 |
| E18L | 1.55 |
| E18W | 2.42 |
| E18F | 2.06 |
| E18C | 1.73 |
| E18T | 1.48 |
| E18Y | 2.22 |
| E18H | 2.29 |
| E18D | 1.86 |
| E18M | 2.01 |
| E18V | 1.94 |
| E18N | 1.96 |
| E18S | 2.13 |
| E18G | 2.53 |
| E18K | 1.95 |
| E18Q | 2.03 |
| E18I | 1.67 |
| I24W | 2.28 |
| I24D | 2.73 |
| I24E | 2.17 |
| I24V | 1.92 |

| Variant | protein stability index |
| --- | --- |
| I24H | 2.38 |
| I24T | 1.58 |
| I24P | 2.45 |
| I24G | 2.08 |
| I24A | 1.98 |
| I24L | 1.65 |
| I24M | 2.05 |
| I24Q | 2.22 |
| I24Y | 1.74 |
| I24F | 1.98 |
| I24R | 1.68 |
| I24S | 1.93 |
| I24N | 2.18 |
| I24K | 1.87 |
| I24C | 1.75 |
| K23E | 1.71 |
| K23T | 2.08 |
| K23F | 1.81 |
| K23C | 1.79 |
| K23A | 1.78 |
| K23V | 2.25 |
| K23L | 3.08 |
| K23R | 2.45 |
| K23I | 1.73 |
| K23Q | 1.59 |

| Variant | protein stability index |
| --- | --- |
| K23M | 2.62 |
| K23S | 2.36 |
| K23W | 1.59 |
| K23H | 2.95 |
| K23G | 1.86 |
| K23P | 2.63 |
| K23Y | 1.49 |
| K23N | 2.28 |
| K23D | 2.55 |
| R21V | 1.94 |
| R21H | 1.57 |
| R21N | 1.8 |
| R21S | 2.97 |
| R21F | 1.93 |
| R21E | 2.17 |
| R21P | 2.32 |
| R21W | 1.93 |
| R21A | 1.66 |
| R21C | 1.87 |
| R21Q | 1.89 |
| R21I | 2.16 |
| R21M | 1.96 |
| R21L | 1.84 |
| R21K | 2.19 |
| R21T | 2.26 |

| Variant | protein stability index |
| --- | --- |
| R21Y | 1.75 |
| R21D | 2.1 |
| R21G | 2.09 |
| L20H | 1.81 |
| L20W | 2.08 |
| L20R | 2.18 |
| L20F | 1.3 |
| L20Y | 2.26 |
| L20K | 2.19 |
| L20I | 1.76 |
| L20S | 1.67 |
| L20N | 1.94 |
| L20Q | 1.75 |
| L20M | 1.78 |
| L20P | 1.78 |
| L20E | 2.25 |
| L20T | 1.82 |
| L20A | 1.95 |
| L20C | 1.59 |
| L20G | 2.08 |
| L20V | 1.49 |
| L20D | 1.97 |
| A22I | 2.32 |
| A22L | 1.99 |
| A22C | 1.83 |

| Variant | protein stability index |
| --- | --- |
| A22V | 2.45 |
| A22D | 2.29 |
| A22G | 1.89 |
| A22K | 1.82 |
| A22F | 2.06 |
| A22N | 2.01 |
| A22R | 1.83 |
| A22P | 1.68 |
| A22H | 1.52 |
| A22T | 1.98 |
| A22W | 2 |
| A22Q | 2 |
| A22M | 2.27 |
| A22S | 2.16 |
| A22E | 2.92 |
| A22Y | 1.81 |
| L15F | 1.4 |
| L15C | 1.87 |
| L15P | 1.51 |
| L15I | 2.32 |
| L15E | 2.61 |
| L15T | 1.55 |
| L15N | 2.05 |
| L15G | 1.75 |
| L15Q | 1.7 |

| Variant | protein stability index |
| --- | --- |
| L15K | 2.05 |
| L15H | 2.38 |
| L15S | 1.95 |
| L15V | 1.48 |
| L15M | 2.56 |
| L15Y | 2.44 |
| L15A | 1.93 |
| L15D | 2.09 |
| L15W | 1.49 |
| L15R | 1.99 |
| Q13R | 1.71 |
| Q13W | 1.98 |
| Q13K | 1.46 |
| Q13I | 2.49 |
| Q13A | 2.23 |
| Q13L | 2.32 |
| Q13P | 2.17 |
| Q13M | 2.07 |
| Q13T | 2.32 |
| Q13S | 1.69 |
| Q13Y | 1.9 |
| Q13N | 1.91 |
| Q13V | 2.4 |
| Q13C | 1.84 |
| Q13F | 1.62 |

| Variant | protein stability index |
| --- | --- |
| Q13E | 2.41 |
| Q13D | 2.3 |
| Q13G | 2.31 |
| Q13H | 2.06 |
| E17W | 1.9 |
| E17C | 2.21 |
| E17R | 2.44 |
| E17N | 2 |
| E17Y | 1.36 |
| E17I | 2.45 |
| E17P | 1.98 |
| E17V | 2.25 |
| E17T | 2.08 |
| E17G | 2.35 |
| E17Q | 1.51 |
| E17A | 1.6 |
| E17S | 2.15 |
| E17D | 2.01 |
| E17L | 2.19 |
| E17H | 1.84 |
| E17K | 1.9 |
| E17F | 1.87 |
| E17M | 2.21 |
| E16A | 1.98 |
| E16M | 1.74 |

| Variant | protein stability index |
| --- | --- |
| E16T | 1.83 |
| E16D | 1.77 |
| E16I | 1.51 |
| E16H | 1.74 |
| E16G | 2.41 |
| E16N | 2.07 |
| E16P | 1.56 |
| E16L | 2.17 |
| E16R | 1.53 |
| E16S | 1.39 |
| E16Y | 1.73 |
| E16W | 1.73 |
| E16V | 2.24 |
| E16Q | 1.8 |
| E16C | 2.09 |
| E16F | 2.74 |
| E16K | 1.67 |
